Values joined by “and” are separate entries in the source; they are usually repeats but may differ in a detail not shown here. Identical values can stand only once. Like-named read-outs stand apart in the source and are kept apart here.
Legend:
[1] = molecular target: T1, human OX40 expressed on cells (human, UniProt P43489 29-277); assay: cell-based or functional assay
T1 sequence: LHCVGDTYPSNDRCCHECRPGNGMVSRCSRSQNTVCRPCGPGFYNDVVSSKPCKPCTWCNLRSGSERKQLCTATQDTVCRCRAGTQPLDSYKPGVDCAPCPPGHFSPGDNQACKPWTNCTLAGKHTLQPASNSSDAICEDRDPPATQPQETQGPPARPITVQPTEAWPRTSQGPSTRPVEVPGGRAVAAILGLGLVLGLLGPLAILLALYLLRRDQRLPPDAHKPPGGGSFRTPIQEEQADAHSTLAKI

[2] = molecular target: T2, cynomolgus OX40 on activated cynomolgus monkey CD4+ T cells (cynomolgus monkey, UniProt P43489 29-277 (human entry)); assay: flow cytometry on PHA and IL-2 activated cynomolgus monkey CD4+ T cells
T2 chain: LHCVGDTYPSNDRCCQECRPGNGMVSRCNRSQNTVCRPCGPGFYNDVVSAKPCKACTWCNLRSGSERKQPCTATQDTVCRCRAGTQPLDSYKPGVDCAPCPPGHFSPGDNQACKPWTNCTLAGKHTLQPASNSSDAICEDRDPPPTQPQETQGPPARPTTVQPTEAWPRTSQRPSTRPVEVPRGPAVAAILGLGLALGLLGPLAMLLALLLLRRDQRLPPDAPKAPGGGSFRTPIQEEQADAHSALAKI
Method: Cynomolgus monkey whole blood was purchased from Worldwide Primates. For isolation of PBMCs, whole blood was diluted in a 1:1 ratio with PBS without magnesium and calcium (GE Healthcare). Diluted blood (30 mL) was layered under 13 mL of 95% Ficoll-Paque Plus (GE Healthcare) prepared in PBS without magnesium and calcium (GE Healthcare) in 50-mL conical tubes. The tubes were spun at 1000 g for 25 minutes. The interphase was collected and washed twice in 1×PBS. Cells were resuspended to 2×10⁶ cells/mL in RPMI/10% FBS. Cells were incubated for […] with […] phytohemagglutinin (PHA) (Sigma) and 100 U/mL recombinant human interleukin-2 (IL-2) (Proleukin®, Prometheus) in 6-well plates. After 24 hours, cells were washed, counted and resuspended to 2×10⁶/mL. 100 μL of the cells were used per stain. Test anti-OX40 antibody was titrated in a 4-fold dilution series starting at 1 μg/mL. Cells were stained for 30 minutes and washed twice. A 1:250 dilution (4 μg/mL) of Goat anti-Human IgG Fc specific-PE (Jackson ImmunoResearch) in 100 μL PBS containing 1% BSA was added per well. Cells were stained for an additional 30 minutes and washed twice, transferred to tubes and acquired using the BD LSR Fortessa flow cytometer, and analyzed using FACSDiva analysis software version 8.0.1.

[3] = molecular target: T1, human OX40 expressed on cells; assay: cell-based or functional assay; remark: listed apart in the source
[4] = molecular target: T3, rhesus OX40 expressed on 293 NF-κB reporter cells (rhesus macaque (Macaca mulatta), UniProt P43489 29-277 (human entry)); assay: flow cytometry on NF-κB reporter cells expressing rhesus OX40
T3 construct: also called cell-surface rhesus monkey OX40
T3 chain: T2 chain
Method: Rhesus macaque (Macaca mulatta) OX40 is identical to cynomolgus monkey (Macaca fascicularis) OX40 (SEQ ID NO:2) at the amino acid level. […] For the binding assay, cells were resuspended at 5 million cells per mL. 50 μL (250,000 cells)/well were transferred to each well of a 500 μL polypropylene 96-well plate (Nunc). A 2× stock of test anti-OX40 antibody or isotype control monoclonal antibody was prepared in a separate dilution plate at 666, 333, 111, 37.03, 12.34, 4.11, 0.457, 0.152, 0.0508, 0.0169, 0.00564 nM in culture media. The monoclonal antibodies (50 μL/well) were transferred into respective wells of the assay plate. Cells were incubated with the primary antibodies for 30 minutes at 4° C. and washed twice with 250 μL/well of PBS by centrifuging at 800 rpm for 3 minutes. Bound antibody was detected with Cy5-Donkey anti-human IgG (H+L) (Jackson ImmunoResearch) diluted to 2 μg/mL (50 μL/well) in PBS for 30 minutes at 4° C. Cells were washed once with 250 μL/well of PBS, resuspended in PBS containing 1% Formaldehyde and analyzed on a dual laser FACSCalibur (Becton Dickinson).

[5] = molecular target: T1, human OX40 expressed on cells; assay: competition by flow cytometry on Jurkat-NF-κB-huOX40 cells; competitor: ALEXA FLUOR 647-labeled Hu3738 at 2 µg/mL
Method: Analysis was performed by flow cytometry.

[6] = molecular target: T1, human OX40 expressed on cells; assay: cell-based or functional assay; remark: listed apart in the source
[7] = molecular target: T4, human OX40-FC (R&D Systems) (human, UniProt P43489 29-216); assay: ELISA on plates coated with human OX40-Fc
T4 construct: Purchased reagent; also called recombinant human OX40; not shown: Fc part of the purchased fusion
T4 sequence: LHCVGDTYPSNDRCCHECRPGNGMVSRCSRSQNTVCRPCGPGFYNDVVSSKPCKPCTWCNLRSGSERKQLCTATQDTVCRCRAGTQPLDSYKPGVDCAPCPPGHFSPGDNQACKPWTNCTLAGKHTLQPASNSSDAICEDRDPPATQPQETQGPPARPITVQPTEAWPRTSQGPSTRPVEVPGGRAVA
Method: Immunolon 4×HB 96-well plates (Thermo Scientific) were coated with 1 μg/mL of human OX40-FC (R&D Systems) at 4° C. overnight. Plates were blocked with phosphate-buffered saline (PBS) containing 1% bovine serum albumin (BSA) for 30 minutes at room temperature and then washed three times with PBST (PBS with 0.1% Tween 20) using a plate washer. OX40-coated plates were then incubated with indicated concentrations of test antibody at room temperature for one hour. Plates were washed four times with PBST and then incubated for 1 hour at room temperature with 100 μL of goat anti-human Fab fragment specific-Biotin (Jackson ImmunoResearch) prepared to a dilution of 1:5000 in PBS containing 1% BSA. Plates were then washed five times in PBST and 100 μL of a 1:1000 dilution of streptavidin-horseradish peroxidase (HRP) (Thermo Scientific) was added to each well and incubated for 30 minutes at room temperature. Plates were subsequently washed five times in PBST and 100 μL of TMB One component (Surmodics) were added to each well and incubated at room temperature (RT) until color developed (approximately 5-10 minutes). Optical density (OD) was read at 650 nm (Molecular Devices Spectromax190).

EC50 With Cross-linker (nM), NF-κB signaling [1]: 0.02 nM
EC50 Without Cross-linker (nM), NF-κB signaling [1]: 22 nM
EC50 [2]: 0.024 nM
ADCC reporter activity, EC50 [3]: 0.51 nM and 77 ng/mL
IFN-γ production by human CD4+ T cells, EC50 [3]: 0.16 nM and 24 ng/mL
proliferation of human peripheral blood CD4+ T cells, EC50 [3]: 0.11 nM and 16 ng/mL
EC50 [4]: 2.1 nM
IC50 (read off the curve) [5]: ~1 µg/mL
EC50 With Cross-linker (nM), NF-κB signaling [6]: 0.088 nM
EC50 Without Cross-linker (nM), NF-κB signaling [6]: 20 nM
EC50 [7]: 0.044 nM
B1: Hu3738 (antibody, V domains shown)
VH: EVQLVESGGGLVQPGGSLRLSCAASGFTFSRYGMSWVRQAPGKGLELVATINSNGGRTYYPDSVKGRFTISRDNAKNSLYLQMNSLRAEDTAVYYCAREGITTAYAMDYWGQGTTVTVSS
VL: DIVMTQSPDSLAVSLGERATINCKASQSVDYDGDSYMHWYQQKPGQPPKLLIYAASILESGVPDRFSGSGSGTDFTLTISSLQAEDVAVYYCQQSNEDPRTFGGGTKVEIKR
notes: Humanized antibody; also called exemplary anti-OX40 antibody Hu3738; Hu3738 VH.1b / Hu3738 VL.1
